Measurements: US20140147439A1 (NVIP, published 2014)

Target: T1, human complement C1q (from human serum) (human, UniProt P02745 23-245; P02746 28-253; P02747 29-245)
T1 construct: Native C1q in human serum diluted 1/100
Experiment: ELISA: antibody captured on NGF-coated plate, incubated with human serum, bound C1q detected with sheep anti-C1q-HRP, absorbance at 450 nm
Experimental: The plates were washed and then incubated with human serum and bound complement C1q was measured by binding of anti-human C1q polyclonal antibody HRP and developed as above.
Plates were coated with 100 μl/well of 5 μg/ml mouse NGF and blocked with 5% BSA/PBS. […] The plates were washed and incubated for 1 hour at room temperature with 100 μl/well of human serum diluted 1/100 in veronal buffered saline containing 0.5 mM MgCl₂, 2 mM CaCl₂, 0.05% Tween-20, 0.1% gelatin and 0.5% BSA. After washing, plates were incubated with 100 μl of a 1/800 dilution of sheep anti-C1q-HRP (Serotec) in PBS/1% BSA. After washing, plates were developed by the addition of 100 μl TMB substrate (Thermo Scientific). Development was stopped by the addition of 100 μl of 2NH₂SO₄ and absorbance read at 450 nm.

T1 sequence (P02745 23-245 limits assumed, chain 1 of 3): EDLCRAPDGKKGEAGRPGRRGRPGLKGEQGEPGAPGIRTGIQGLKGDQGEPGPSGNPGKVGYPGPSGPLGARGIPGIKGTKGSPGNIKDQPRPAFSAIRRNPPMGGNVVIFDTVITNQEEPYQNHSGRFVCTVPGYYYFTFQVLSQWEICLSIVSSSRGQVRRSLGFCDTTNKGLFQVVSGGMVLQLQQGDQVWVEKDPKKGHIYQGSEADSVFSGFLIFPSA
T1 sequence (P02746 28-253 limits assumed, chain 2 of 3): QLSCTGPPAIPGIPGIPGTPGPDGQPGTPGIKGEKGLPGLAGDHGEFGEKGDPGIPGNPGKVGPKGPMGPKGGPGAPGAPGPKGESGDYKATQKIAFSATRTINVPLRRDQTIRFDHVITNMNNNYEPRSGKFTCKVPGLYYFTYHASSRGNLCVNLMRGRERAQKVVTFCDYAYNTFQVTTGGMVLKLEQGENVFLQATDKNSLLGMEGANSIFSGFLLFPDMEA
T1 sequence (P02747 29-245 limits assumed, chain 3 of 3): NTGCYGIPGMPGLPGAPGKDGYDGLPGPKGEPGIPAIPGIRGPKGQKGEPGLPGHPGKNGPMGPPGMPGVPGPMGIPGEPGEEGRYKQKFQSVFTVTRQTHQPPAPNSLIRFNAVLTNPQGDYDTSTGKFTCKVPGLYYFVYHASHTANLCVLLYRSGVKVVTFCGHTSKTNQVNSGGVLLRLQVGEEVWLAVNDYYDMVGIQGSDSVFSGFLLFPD

B1: felinised anti-NGF monoclonal antibody (heavy chain SEQ ID NO:6, light chain SEQ ID NO:5) (antibody, IgG2)
heavy: QVQLVESGGDLVQPGGSLRLTCAASGFSLTNNNVNWVRQAPGKGLEWMGGVWAGGATDYNSALKGRFTISRDNAKNTLYLQMNSLKTEDTATYYCARDGGYSSSTLYAMDAWGQGTLVTVSSASTTAPSVFPLAPSCGTTSGATVALACLVLGYFPEPVTVSWNSGALTSGVHTFPAVLQASGLYSLSSMVTVPSSRWLSDTFTCNVAHPPSNTKVDKTVRKTDHPPGPKPCDCPKCPPPEMLGGPSIFIFPPKPKDTLSISRTPEVTCLVVDLGPDDSDVQITWFVDNTQVYTAKTSPREEQFNSTYRVVSVLPILHQDWLKGKEFKCKVNSKSLPSPIERTISKAKGQPHEPQVYVLPPAQEELSRNKVSVTCLIKSFHPPDIAVEWEITGQPEPENNYRTTPPQLDSDGTYFVYSKLSVDRSHWQRGNTYTCSVSHEALHSHHTQKSLTQSPGK
light: DIVMTQTPLSLSVTPGEPASISCRASEDIYNALAWYLQKPGQSPRRLIYNTDTLHTGVPDRFSGSGSGTDFTLRISRVEADDVGVYFCQHYFHYPRTFGPGTKLEIKRSDAQPSVFLFQPSLDELHTGSASIVCILNDFYPKEVNVKWKVDGVVQTKASKESTTEQNSKDSTYSLSSTLTMSRTEYQSHEKFSCEVTHKSLASTLVKSFNRSECQRE
notes: Felinised alphaD11 variable domains with a feline HC2 (IgG2) heavy chain constant region and a feline kappa constant domain; also called felinised antibody; felinised anti-NGF MAb
binding result: no binding (tested: human serum diluted 1/100)
